# Experiments:
# [1] = target: HLA-G recombinant protein (CAT #: TP305216, Origene) (human) (UniProt P17693); experiment: competitive ELISA, HLA-G coated, competitor biotinylated LILRB1
# [2] = target: HLA-G recombinant protein (CAT #: TP305216, Origene) (human) (UniProt P17693); experiment: competitive ELISA, HLA-G coated, competitor biotinylated KIR2DL4
# [3] = target: T1, HLA-G recombinant protein (CAT #: TP305216, Origene) (human, UniProt P17693 25-338, limits assumed); experiment: competitive ELISA, HLA-G coated, competitor biotinylated LILRB1; blocking normalized to 87G
# T1 construct: Bought recombinant protein coated on the plate; also called human leukocyte antigen-G
# Protocol: (§1) The procedure is as follows. HLA-G recombinant protein (CAT #: TP305216, Origene) (0.2 mg/ml, 100 μl each well) was coated on 96-well plate overnight at 4° C. Next day, the coating buffer was discarded, and blocked with 3% skin milk for 2 hr at room temperature, followed by washing 5 times with PBST (0.05% Tween in PBS). […] After 9 times of washing, each well was incubated with 100 μl PBST containing streptavidin-HRP conjugates (ThermoFisher, Cat No: N100, dilution titer: […]) for 2 hr at room temperature. After 9 times of washing with PBST, 50 μl of TMB substrate for detecting HRP activity (ThermoFisher, Cat No:N301) was added. The reactions were stopped by adding 50 μl stop solution (ThermoFisher, Cat No:N600), and it was measured by ELISA reader using 450 nm channel.
# [4] = target: T1, HLA-G recombinant protein (CAT #: …); experiment: competitive ELISA, HLA-G coated, competitor biotinylated KIR2DL4; blocking normalized to 87G
# Protocol: as §1
IC50 [1] [µg/mL],IC50 [2] [µg/mL],IC50 [3] [µg/mL],IC50 [4] [µg/mL],Molecule
0.101,0.0414,,,commercial anti-HLA-G monoclonal antibody (87G)
,,0.000174,0.814,"anti-HLA-G nanobody clone #20 (VHH, also called anti-tumor antigen nanobody; anti-HLA-G nanobody (NB)) VHH: EVQLVESGGGSVRPGETLRLSCTASGFTVDDSDMSWYRQAPGDECELVSSITSGGGKYYSHPVKGRFTIFRDKGKNTMYLQMNSLVPEDTGVYYCVAPAWTGYGCTWGQGTQVTVSS"
,,0.000825,0.00614,"anti-HLA-G nanobody clone #9 (VHH, also called anti-tumor antigen nanobody; anti-HLA-G nanobody (NB)) VHH: QVQLVESGGGSVQAGGSLRLSCEASGRTYSSNCMGWFRQAPGKERENVAAIYTGGDGITYADSVKGRFTISQDKLKNMLYLQMDSLKPEDTAMYYCAADPNRRRMGVGGSCLRANFGPGGQGTQVTVSS"

# Source: patent US20220306747A1 (CHINA MEDICAL UNIVERSITY HOSPITAL, published 2022)
